Measured values published in patent US20230240981A1 (THE REGENTS OF THE UNIVERSITY OF CALIFORNIA, priority 2020, published 2023).

Columns and labels:
[1] = physiological pH
[2] = MALDI-TOF mass spectrum of native and microneedle-released insulin/glucagon; assay type: physicochemical; details: throughout the polymerization process

insulin: Human recombinant insulin purchased from Thermo Fisher Scientific
solubility [1]: high solubility
integrity of protein released from microneedles [2]: stayed intact
